According to publication PMC10917881, “Biochemical characterization of L-asparaginase isoforms from Rhizobium etli—the boosting effect of zinc” (Frontiers in Chemistry, 2024):

Key:
[1] = substrate: NC(=O)C[C@H](N)C(=O)O; test: ITC multiple injection method (heat-rate); format: biochemical, Rhizobium etli; conditions: 10 mM Tris-HCl pH 9.0, 37°C, with optimal 1 µM Zn2+ (metal cofactor)
From the text: ITC multiple injection method (heat-rate) on ReAIV

[2] = substrate: C=CC(N)=O; test: ITC, Michaelis-Menten fit; format: biochemical, Rhizobium etli; conditions: possible substrate only: heat signal, product not confirmed by Nessler, protein adduct not excluded; fit before product inhibition / inactivation
From the text: ITC, Michaelis-Menten fit on ReAIV | after acrylamide injection into the reaction cell containing ReAIV, but not ReAV

purified protein = substrate: NC(=O)C[C@H](N)C(=O)O; test: purified protein; conditions: 10 mM Tris-HCl pH 9.0, 37°C, with optimal Zn2+ (metal cofactor)
[3] = substrate: NC(=O)C[C@H](N)C(=O)O; test: ITC multiple injection method (heat-rate); format: biochemical, Rhizobium etli; conditions: Tris-HCl pH 9.0, 37°C
From the text: ITC multiple injection method (heat-rate) on ReAV

[4] = with optimal 2.5 µM Zn2+ (metal cofactor)

B1: ReAIV (Rhizobium etli CFN 42) (protein)
chain: MTNPVTVEVTRGLLVESRHRGAVAVVDGDGKLFFSLGDIDTAVFPRSACKAMQALPLVESGAADAYGFGDKELALACASHNGEEEHVALAASMLSRAGRNVEALECGAHWSMNQKVLIQQARSLDAPTALHNNCSGKHAGFICACCHRDIDPKGYVGYEHPLQVEIRAVMERLTGAVLGAESCGTDGCSIPTYAMPLRNLAHGFARMATGTGLEPLRAKASRRLIEACMAEPFYVAGSGRACTKLMQIAPGRIFVKTGAEGVFCAAIPEKGIGISLKSEDGATRAAEAMVAATLARFFETEETVHAALMAFAAMPMRNWNGIHVGDIRATSVFSA
notes: full length, 335 residues; N-terminal 6xHis tag cut off by TEV (pET151D); E. coli BL21 Gold (DE3); homodimer
- Km [1]: 1500 ± 100 µM
- kcat [1]: 770 ± 17 s⁻¹
- kcat/Km [1]: 526000 ± 34000 M⁻¹ s⁻¹
- Km [2]: 5500 µM
- kcat [2]: 12.6 s⁻¹

B2: ReAIV (Rhizobium etli CFN 42; K137A) (protein)
chain: MTNPVTVEVTRGLLVESRHRGAVAVVDGDGKLFFSLGDIDTAVFPRSACKAMQALPLVESGAADAYGFGDKELALACASHNGEEEHVALAASMLSRAGRNVEALECGAHWSMNQKVLIQQARSLDAPTALHNNCSGAHAGFICACCHRDIDPKGYVGYEHPLQVEIRAVMERLTGAVLGAESCGTDGCSIPTYAMPLRNLAHGFARMATGTGLEPLRAKASRRLIEACMAEPFYVAGSGRACTKLMQIAPGRIFVKTGAEGVFCAAIPEKGIGISLKSEDGATRAAEAMVAATLARFFETEETVHAALMAFAAMPMRNWNGIHVGDIRATSVFSA
- Km (purified protein): 2300 ± 100 µM
- kcat (purified protein): 158 s⁻¹
- kcat/Km (purified protein): 70000 M⁻¹ s⁻¹

B3: ReAV (Rhizobium etli CFN 42) (protein)
chain: MTPSEDFVVTDRGGIVENSHRVHAAVVDAKGRLLYALGNPTRMTLARSAAKPAQALAILETEGVAGYGFDDADIALMCASHSSEDRHIARTRAMLSKIKAEEADLRCGGHPSLSEMVNRSWIKQDFIPTAVCSNCSGKHVGMLAGARAIGAGTDGYHLPDHPMQGRVKRTVAELCDLDAGDVEWGTDGCNLPTPAFPLDRLGRIYAKLASAADGSDAGEGQSTRCAALAHIFRAMARHPEMVAGEGRYCTMLMRAFDGALVGKLGADASYAIGVRASDATRQLGTDGALGISVKIEDGNLEMLYAVVTELLERLGIGSPDVRSQLASFHHPQRVNTMGVTTGGVSFPFKLRGSKSNVDDPRLAAVAR
notes: full length, 367 residues; N-terminal 6xHis tag cut off by TEV (pET151D); E. coli BL21 Gold (DE3); homodimer
- Km [3, 4]: 2100 ± 200 µM
- kcat [3, 4]: 603 ± 24 s⁻¹
- kcat/Km [3, 4]: 294000 ± 31000 M⁻¹ s⁻¹

B4: ReAV (Rhizobium etli CFN 42; K138A) (protein)
chain: MTPSEDFVVTDRGGIVENSHRVHAAVVDAKGRLLYALGNPTRMTLARSAAKPAQALAILETEGVAGYGFDDADIALMCASHSSEDRHIARTRAMLSKIKAEEADLRCGGHPSLSEMVNRSWIKQDFIPTAVCSNCSGAHVGMLAGARAIGAGTDGYHLPDHPMQGRVKRTVAELCDLDAGDVEWGTDGCNLPTPAFPLDRLGRIYAKLASAADGSDAGEGQSTRCAALAHIFRAMARHPEMVAGEGRYCTMLMRAFDGALVGKLGADASYAIGVRASDATRQLGTDGALGISVKIEDGNLEMLYAVVTELLERLGIGSPDVRSQLASFHHPQRVNTMGVTTGGVSFPFKLRGSKSNVDDPRLAAVAR
notes: as for B3
- Km ([3]; with optimal Zn2+ (metal cofactor)): 500 ± 100 µM
